Target: FLAG-tagged TRAP150 (thyroid hormone receptor-associated protein of 150 kDa), full length (UniProt Q9Y2W1)
Assay: co-IP; anti-FLAG immunoprecipitation of FLAG-TRAP150 (full length or truncated) from lysate of transfected HEK293 cells (hypotonic buffer with 0.5% Triton X-100, brought to 150 mM NaCl); precipitates mock- or RNase A-treated; immunoblot of endogenous partners

Chain of UniProt Q9Y2W1 (Q9Y2W1 2-955): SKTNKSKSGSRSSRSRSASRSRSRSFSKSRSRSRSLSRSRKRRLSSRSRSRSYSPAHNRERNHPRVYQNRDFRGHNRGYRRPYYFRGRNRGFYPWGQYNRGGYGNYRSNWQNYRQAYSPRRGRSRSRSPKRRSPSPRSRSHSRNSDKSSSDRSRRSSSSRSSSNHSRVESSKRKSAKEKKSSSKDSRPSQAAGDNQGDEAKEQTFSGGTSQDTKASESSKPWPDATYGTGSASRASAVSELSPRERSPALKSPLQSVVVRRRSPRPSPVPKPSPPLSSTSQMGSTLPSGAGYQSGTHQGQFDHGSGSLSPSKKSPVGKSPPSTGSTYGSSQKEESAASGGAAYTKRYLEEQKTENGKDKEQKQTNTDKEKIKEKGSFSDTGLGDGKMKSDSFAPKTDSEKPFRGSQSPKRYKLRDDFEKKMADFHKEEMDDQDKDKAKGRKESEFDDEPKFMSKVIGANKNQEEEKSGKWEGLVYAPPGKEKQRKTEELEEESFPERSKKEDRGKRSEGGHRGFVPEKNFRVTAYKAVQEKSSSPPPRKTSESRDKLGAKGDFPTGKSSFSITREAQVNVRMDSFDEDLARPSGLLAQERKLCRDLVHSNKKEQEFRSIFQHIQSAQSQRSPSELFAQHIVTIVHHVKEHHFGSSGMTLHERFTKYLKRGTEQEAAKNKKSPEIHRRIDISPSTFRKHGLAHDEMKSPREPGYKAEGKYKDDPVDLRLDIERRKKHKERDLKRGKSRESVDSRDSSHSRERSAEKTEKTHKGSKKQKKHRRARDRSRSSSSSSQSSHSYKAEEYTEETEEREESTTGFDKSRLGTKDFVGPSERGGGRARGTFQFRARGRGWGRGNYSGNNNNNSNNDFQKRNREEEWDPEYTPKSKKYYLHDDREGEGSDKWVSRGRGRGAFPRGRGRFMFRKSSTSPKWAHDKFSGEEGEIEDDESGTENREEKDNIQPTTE

B1: CPSF160 (natural protein)
chain: MYAVYKQAHPPTGLEFSMYCNFFNNSERNLVVAGTSQLYVYRLNRDAEALTKNDRSTEGKAHREKLELAASFSFFGNVMSMASVQLAGAKRDALLLSFKDAKLSVVEYDPGTHDLKTLSLHYFEEPELRDGFVQNVHTPRVRVDPDGRCAAMLVYGTRLVVLPFRRESLAEEHEGLVGEGQRSSFLPSYIIDVRALDEKLLNIIDLQFLHGYYEPTLLILFEPNQTWPGRVAVRQDTCSIVAISLNITQKVHPVIWSLTSLPFDCTQALAVPKPIGGVVVFAVNSLLYLNQSVPPYGVALNSLTTGTTAFPLRTQEGVRITLDCAQATFISYDKMVISLKGGEIYVLTLITDGMRSVRAFHFDKAAASVLTTSMVTMEPGYLFLGSRLGNSLLLKYTEKLQEPPASAVREAADKEEPPSKKKRVDATAGWSAAGKSVPQDEVDEIEVYGSEAQSGTQLATYSFEVCDSILNIGPCANAAVGEPAFLSEEFQNSPEPDLEIVVCSGHGKNGALSVLQKSIRPQVVTTFELPGCYDMWTVIAPVRKEEEDNPKGEGTEQEPSTTPEADDDGRRHGFLILSREDSTMILQTGQEIMELDTSGFATQGPTVFAGNIGDNRYIVQVSPLGIRLLEGVNQLHFIPVDLGAPIVQCAVADPYVVIMSAEGHVTMFLLKSDSYGGRHHRLALHKPPLHHQSKVITLCLYRDLSGMFTTESRLGGARDELGGRSGPEAEGLGSETSPTVDDEEEMLYGDSGSLFSPSKEEARRSSQPPADRDPAPFRAEPTHWCLLVRENGTMEIYQLPDWRLVFLVKNFPVGQRVLVDSSFGQPTTQGEARREEATRQGELPLVKEVLLVALGSRQSRPYLLVHVDQELLIYEAFPHDSQLGQGNLKVRFKKVPHNINFREKKPKPSKKKAEGGGAEEGAGARGRVARFRYFEDIYGYSGVFICGPSPHWLLVTGRGALRLHPMAIDGPVDSFAPFHNVNCPRGFLYFNRQGELRISVLPAYLSYDAPWPVRKIPLRCTAHYVAYHVESKVYAVATSTNTPCARIPRMTGEEKEFETIERDERYIHPQQEAFSIQLISPVSWEAIPNARIELQEWEHVTCMKTVSLRSEETVSGLKGYVAAGTCLMQGEEVTCRGRILIMDVIEVVPEPGQPLTKNKFKVLYEKEQKGPVTALCHCNGHLVSAIGQKIFLWSLRASELTGMAFIDTQLYIHQMISVKNFILAADVMKSISLLRYQEESKTLSLVSRDAKPLEVYSVDFMVDNAQLGFLVSDRDRNLMVYMYLPEAKESFGGMRLLRRADFHVGAHVNTFWRTPCRGATEGLSKKSVVWENKHITWFATLDGGIGLLLPMQEKTYRRLLMLQNALTTMLPHHAGLNPRAFRMLHVDRRTLQNAVRNVLDGELLNRYLYLSTMERSELAKKIGTTPDIILDDLLETDRVTAHF
percent of CPSF160 co-precipitated: 10 to 20%
